Assay results as given in IntAct's records for PubMed 20861839.

B1: RNA polymerase II subunit A C-terminal domain phosphatase SSU72 (Homo sapiens), Q9NP77-1 (parent)
chain: MPSSPLRVAVVCSSNQNRSMEAHNILSKRGFSVRSFGTGTHVKLPGPAPDKPNVYDFKTTYDQMYNDLLRKDKELYTQNGILHMLDRNKRIKPRPERFQNCKDLFDLILTCEERVYDQVVEDLNSREQETCQPVHVVNVDIQDNHEEATLGAFLICELCQCIQHTEDMENEIDELLQEFEEKSGRTFLHTVCFY
partner: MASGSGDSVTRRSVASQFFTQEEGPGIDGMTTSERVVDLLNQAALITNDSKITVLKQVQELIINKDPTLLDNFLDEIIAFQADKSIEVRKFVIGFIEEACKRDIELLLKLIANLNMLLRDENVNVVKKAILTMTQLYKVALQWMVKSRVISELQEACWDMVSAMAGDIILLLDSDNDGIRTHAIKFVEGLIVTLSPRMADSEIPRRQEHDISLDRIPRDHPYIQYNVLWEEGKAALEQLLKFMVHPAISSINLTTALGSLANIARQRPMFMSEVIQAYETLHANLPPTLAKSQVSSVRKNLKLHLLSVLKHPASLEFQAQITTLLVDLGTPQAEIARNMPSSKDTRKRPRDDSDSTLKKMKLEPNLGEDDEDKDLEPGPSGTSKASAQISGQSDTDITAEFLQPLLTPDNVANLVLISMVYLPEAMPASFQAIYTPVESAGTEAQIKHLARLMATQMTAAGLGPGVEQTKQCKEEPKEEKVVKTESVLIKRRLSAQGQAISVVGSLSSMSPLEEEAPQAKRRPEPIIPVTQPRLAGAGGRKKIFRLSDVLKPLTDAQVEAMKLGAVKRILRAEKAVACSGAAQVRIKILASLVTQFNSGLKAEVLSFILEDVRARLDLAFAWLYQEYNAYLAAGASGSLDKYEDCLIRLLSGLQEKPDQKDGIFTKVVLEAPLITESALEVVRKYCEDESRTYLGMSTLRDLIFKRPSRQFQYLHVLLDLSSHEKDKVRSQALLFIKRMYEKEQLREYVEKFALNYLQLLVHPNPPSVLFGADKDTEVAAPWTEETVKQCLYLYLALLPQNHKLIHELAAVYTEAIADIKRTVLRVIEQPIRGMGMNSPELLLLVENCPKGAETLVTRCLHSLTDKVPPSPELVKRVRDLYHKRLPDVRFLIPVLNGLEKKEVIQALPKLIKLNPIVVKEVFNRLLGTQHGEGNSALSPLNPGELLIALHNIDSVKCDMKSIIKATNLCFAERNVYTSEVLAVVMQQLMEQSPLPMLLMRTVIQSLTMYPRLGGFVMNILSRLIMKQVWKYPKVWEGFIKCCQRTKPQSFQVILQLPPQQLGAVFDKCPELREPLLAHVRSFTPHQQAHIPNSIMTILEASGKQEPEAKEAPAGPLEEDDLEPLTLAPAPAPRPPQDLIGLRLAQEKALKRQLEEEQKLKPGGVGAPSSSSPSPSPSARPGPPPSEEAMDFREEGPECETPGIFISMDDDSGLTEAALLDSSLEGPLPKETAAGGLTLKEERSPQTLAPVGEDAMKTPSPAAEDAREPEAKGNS
B2: Symplekin (Homo sapiens), Q92797 (parent)
chain: B1 partner

Variants of: B1
Details: with sympk_human SYMPK

Row | Variant | effect of a mutation on the interaction
1 | T190A;V191A;F193A | disrupting interaction

Variants of: B2
Details: with SSU72, Q9NP77-1

Row | Variant | effect of a mutation on the interaction
2 | K185A | disrupting interaction
